Legend:
[1] = target: NPY 1-36 (neuropeptide Y)

Chain of BSA, P02769 (P02769 25-607): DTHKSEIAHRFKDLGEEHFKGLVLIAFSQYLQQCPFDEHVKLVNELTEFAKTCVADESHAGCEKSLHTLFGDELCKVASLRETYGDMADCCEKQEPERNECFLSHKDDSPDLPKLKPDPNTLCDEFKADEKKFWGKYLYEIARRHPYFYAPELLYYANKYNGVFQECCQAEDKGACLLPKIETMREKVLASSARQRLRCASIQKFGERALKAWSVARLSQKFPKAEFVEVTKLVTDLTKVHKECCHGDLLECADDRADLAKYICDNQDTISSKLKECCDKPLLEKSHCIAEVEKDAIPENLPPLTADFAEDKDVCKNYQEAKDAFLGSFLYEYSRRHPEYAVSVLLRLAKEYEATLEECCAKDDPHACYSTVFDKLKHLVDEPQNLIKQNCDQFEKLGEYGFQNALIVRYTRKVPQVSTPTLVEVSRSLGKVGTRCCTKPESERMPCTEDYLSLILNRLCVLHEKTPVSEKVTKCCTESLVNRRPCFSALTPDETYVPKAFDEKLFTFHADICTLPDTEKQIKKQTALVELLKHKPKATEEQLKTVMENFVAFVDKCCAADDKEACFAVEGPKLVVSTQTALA

Protein	degradation of the peptide by AfuS28 + SedB together, 2 hours at 37 C, pH 4 and pH 8, mass spectrometry (33-mer of gliadin)	digestion of the peptide at acidic pH, mass spectrometry [1]	digestion of the peptide at acidic pH, mass spectrometry (NPY 3-36)	digestion of the peptide by AfuS28 and SedB added together, acidic pH, mass spectrometry (NPY 3-36)	proteolysis of a full length protein substrate (BSA, P02769)	degradation of the peptide, products detected by mass spectrometry [1]	degradation of the peptide, products detected by mass spectrometry (NPY 3-36)	full length NPY3-36 remaining after 15 min with 1.8 mU of enzyme at 37 C (degradation kinetics, mass spectrometry) (NPY 3-36)	degradation of the peptide, products detected by mass spectrometry (bradykinin (…))	endoproteolytic activity (release of label from resorufin-labeled casein) (resorufin-labeled casein)
recombinant Aspergillus fumigatus sedolisin SedB (tripeptidyl-peptidase), produced in Pichia pastoris (protein) TSTCDQVITPQCLKDLYNIGDYKADPNGGSKVAFASFLEEYARYDDLAKFEEKLAPYAIGQNFSVIQYNGGLNDQNSASDSGEANLDLQYIVGVSSPIPVTEFSTGGRGLLIPDLSQPDPNDNSNEPYLEFLQNVLKMDQDKLPQVISTSYGEDEQTIPEKYARSVCNLYAQLGSRGVSVIFSSGDSGVGAACLTNDGTNRTHFPPQFPAACPWVTSVGGTTKTQPEEAVYFSSGGFSDLWERPSWQDSAVKRYLKKLGPRYKGLYNPKGRAFPDVAAQAENYAVFDKGVLHQFDGTSCSAPAFSAIVALLNDARLRAHKPVMGFLNPWLYSKASKGFNDIVKGGSKGCDGRNRFGGTPNGSPVVPYASWNATDGWDPATGLGTPDFGKLLSLAMRR	The enzyme composition AfuS28+SedB provides complete degradation of gliadin into several di-, tri-, tetra- and pentapeptides	this enzyme removed tripeptides (YPS, KPD and NPG) from the N-terminus of NPY1-36 until position 10	NPY3-36 was not digested by recombinant SedB	AfuS28 and SedB added together degraded NPY3-36 in Y, di- and tri-peptides	–	–	–	–	–	–
recombinant Aspergillus fumigatus prolyl protease AfuS28, His6-tagged, produced in Pichia pastoris (protein) LMPRAPLIPAMKAKVALPSGNATFEQYIDHNNPGLGTFPQRYWYNPEFWAGPGSPVLLFTPGESDAADYDGFLTNKTIVGRFAEEIGGAVILLEHRYWGASSPYPELTTETLQYLTLEQSIADLVHFAKTVNLPFDEIHSSNADNAPWVMTGGSYSGALAAWTASIAPGTFWAYHASSAPVQAIYDFWQYFVPVVEGMPKNCSKDLNRVVEYIDHVYESGDIERQQEIKEMFGLGALKHFDDFAAAITNGPWLWQDMNFVSGYSRFYKFCDAVENVTPGAKSVPGPEGVGLEKALQGYASWFNSTYLPGSCAEYKYWTDKDAVDCYDSYETNSPIYTDKAVNNTSNKQWTWFLCNEPLFYWQDGAPKDESTIVSRIVSAEYWQRQCHAYFPEVNGYTFGSANGKTAEDVNKWTKGWDLTNTTRLIWANGQFDPWRDASVSSKTRPGGPLQSTEQAPVHVIPGGFHCSDQWLVYGEANAGVQKVIDEEVAQIKAWVAEYPKYRKPHHHHHH	The enzyme composition AfuS28+SedB provides complete degradation of gliadin into several di-, tri-, tetra- and pentapeptides	–	–	AfuS28 and SedB added together degraded NPY3-36 in Y, di- and tri-peptides	AfuS28 does not attack full length protein substrates such as resorufin-labeled casein and BSA	AfuS28 was also found to degrade NPY1-36 and NPY3-36, cleaving after proline residues	AfuS28 was also found to degrade NPY1-36 and NPY3-36, cleaving after proline residues	Less than 10% of full length NPY3-36 was still present after 15 min incubation	Digestion of bradykinin (RPPGFSPFR, SEQ ID NO:28) resulted in RPP, FR, GFSPFR (SEQ ID NO:35) and PGFSPFR (SEQ ID NO:36) fragments	Recombinant AfuS28 showed no detectable proteolytic activity using casein resorufin-labeled as a substrate

Reference: patent US20120276075
